# Results taken from patent US7576101B2, “Composition for and treatment of demyelinating diseases and paralysis by administration of remyelinating agents” (Elan Pharmaceuticals, Inc., priority 2003, dated 2009).
# Columns and labels:
# [1] = molecular target: human α4β1 integrin (human) (UniProt P13612); assay: cell-based or functional assay
# [2] = molecular target: rat α4 integrin on rat lymphocytes (rat); assay: cell-based or functional assay
# [3] = tested on: human lymphocyte binding to rat brain cells; settings: cited from earlier work
# VLA-4 = VLA-4 (Homo sapiens, UniProt P13612); settings: cited from earlier work
molecule,measurement,setting,value
P4G9 (antibody),"Relative Binding to EAE Vessels (% of control), U937 cells",[1],151 % of control
HP2/1 (antibody),"% Input Binding Jurkat, TNFα-stimulated rat brain EC clone",[1],6 % input
same,"% Input Binding Ramos, TNFα-stimulated rat brain EC clone",[1],2 % input
same,% Input Binding U937 to VCAM-1 transfected L cells,[1],3 % input
same,% inhibition of Jurkat binding to FN-coated plate,[1],47 % inhibition
same,"% input bound, Jurkat cells on FN-coated plate (% input bound)",[1],42
same,"% input cells bound, U937 on TNFα-stimulated primary rat brain EC (% input cells bound)",[1],13
same,Binding of U937 cells to inflamed vessels in sections of EAE brain,[1],3
same,"Relative Binding to EAE Vessels (% of Control), human lymphocytes",[1],1 % of Control
same,"Relative Binding to EAE Vessels (% of control), U937 cells",[1],3 % of control
same,"Relative Binding to EAE Vessels (% of control), U937 cells, tested at 25° C.",[1],5 % of control
same,"Relative Binding to EAE Vessels (% of Control), rat lymphocytes",[2],18 % of Control
AIIB2 (antibody),"Relative Binding to EAE Vessels (% of Control), human lymphocytes",[1],7 % of Control
same,"Relative Binding to EAE Vessels (% of control), U937 cells",[1],8 % of control
HP1/7 (antibody),"Relative Binding to EAE Vessels (% of control), U937 cells",[1],338 % of control
"mu MAb 21.6: mouse monoclonal antibody specific for the alpha-4 subunit of VLA-4; donor immunoglobulin for humanization (antibody, V domains shown) VH: EVQLQQSGAELVKPGASVKLSCTASGFNIKDTYIHCVKQRPEQGLEWIGRIDPANGYTKYDPKFQGKATITADTSSNTAYLQLSSLTSEDTAVYFCAREGYYGNYGVYAMDYWGQGTSVTVSSAK VL: DIQMTQSPSSLSASLGGKVTITCKTSQDINKYMAWYQHKPGKRPRLLIHYTSALQPGIPSRFSGSGSGRDYSFNISNLEPEDIATYYCLQYDNLWTFGGGTKLEIK",human lymphocyte binding to tissue cultures of rat brain cells stimulated with tumor necrosis factor,[3],inhibit
same,binding affinity for VLA-4,VLA-4,about 10^9 M^−1
